Source: paper PMC10397247

Tests used:
Experiment in all cases: two-hybrid library CCNG1;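 further: natural log of median RNA to DNA barcode read ratio; higher means stronger binding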
4H1845-bN = target: T1, 4H1845-bN
T1 chain: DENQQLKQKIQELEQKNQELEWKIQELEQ

4H2442-bN = target: T2, 4H2442-bN
T2 chain: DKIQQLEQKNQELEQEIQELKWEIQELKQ

4H2576-bN = target: T3, 4H2576-bN
T3 chain: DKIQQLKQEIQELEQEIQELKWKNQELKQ

4H2588-bN = target: T4, 4H2588-bN
T4 chain: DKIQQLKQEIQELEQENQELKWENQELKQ

4H2610-bN = target: T5, 4H2610-bN
T5 chain: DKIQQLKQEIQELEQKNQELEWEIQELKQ

4H2618-bN = target: T6, 4H2618-bN
T6 chain: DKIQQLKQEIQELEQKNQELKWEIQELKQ

4H2667-bN = target: T7, 4H2667-bN
T7 chain: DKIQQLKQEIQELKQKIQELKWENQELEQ

4H2697-bN = target: T8, 4H2697-bN
T8 chain: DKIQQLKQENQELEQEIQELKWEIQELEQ

4H2729-bN = target: T9, 4H2729-bN
T9 chain: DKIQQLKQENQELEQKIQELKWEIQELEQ

4H3112-bN = target: T10, 4H3112-bN
T10 chain: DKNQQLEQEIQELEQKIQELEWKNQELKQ

4H3185-bN = target: T11, 4H3185-bN
T11 chain: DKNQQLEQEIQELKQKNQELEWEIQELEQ

4H3189-bN = target: T12, 4H3189-bN
T12 chain: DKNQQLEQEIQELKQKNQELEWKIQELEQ

4H331-bN = target: T13, 4H331-bN
T13 chain: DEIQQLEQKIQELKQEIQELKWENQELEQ

4H3354-bN = target: T14, 4H3354-bN
T14 chain: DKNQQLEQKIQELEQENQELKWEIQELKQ

4H338-bN = target: T15, 4H338-bN
T15 chain: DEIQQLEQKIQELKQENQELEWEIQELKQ

4H3427-bN = target: T16, 4H3427-bN
T16 chain: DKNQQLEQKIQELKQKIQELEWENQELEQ

4H3606-bN = target: T17, 4H3606-bN
T17 chain: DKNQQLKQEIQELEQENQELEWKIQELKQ

4H370-bN = target: T18, 4H370-bN
T18 chain: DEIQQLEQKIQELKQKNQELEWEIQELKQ

4H3782-bN = target: T19, 4H3782-bN
T19 chain: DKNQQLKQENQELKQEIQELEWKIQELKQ

4H3843-bN = target: T20, 4H3843-bN
T20 chain: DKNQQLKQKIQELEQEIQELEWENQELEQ

4H3855-bN = target: T21, 4H3855-bN
T21 chain: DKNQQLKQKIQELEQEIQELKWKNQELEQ

4H4001-bN = target: T22, 4H4001-bN
T22 chain: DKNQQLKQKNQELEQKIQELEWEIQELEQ

4H454-bN = target: T23, 4H454-bN
T23 chain: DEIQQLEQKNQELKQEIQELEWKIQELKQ

4H462-bN = target: T24, 4H462-bN
T24 chain: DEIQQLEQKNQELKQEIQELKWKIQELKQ

4H568-bN = target: T25, 4H568-bN
T25 chain: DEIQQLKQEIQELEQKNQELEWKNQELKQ

4H570-bN = target: T26, 4H570-bN
T26 chain: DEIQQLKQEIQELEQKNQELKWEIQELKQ

4H607-bN = target: T27, 4H607-bN
T27 chain: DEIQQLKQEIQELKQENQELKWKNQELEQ

4H619-bN = target: T28, 4H619-bN
T28 chain: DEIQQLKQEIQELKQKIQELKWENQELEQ

4H687-bN = target: T29, 4H687-bN
T29 chain: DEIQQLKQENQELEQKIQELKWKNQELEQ

4H717-bN = target: T30, 4H717-bN
T30 chain: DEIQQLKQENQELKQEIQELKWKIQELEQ

4H72-bN = target: T31, 4H72-bN
T31 chain: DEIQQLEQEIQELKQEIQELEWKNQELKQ

4H754-bN = target: T32, 4H754-bN
T32 chain: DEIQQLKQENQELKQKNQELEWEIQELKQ

4H797-bN = target: T33, 4H797-bN
T33 chain: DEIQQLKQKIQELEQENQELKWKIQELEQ

4H883-bN = target: T34, 4H883-bN
T34 chain: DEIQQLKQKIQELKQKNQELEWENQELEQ

4H908-bN = target: T35, 4H908-bN
T35 chain: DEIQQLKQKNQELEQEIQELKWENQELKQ

4H918-bN = target: T36, 4H918-bN
T36 chain: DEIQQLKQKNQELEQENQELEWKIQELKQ

4H953-bN = target: T37, 4H953-bN
T37 chain: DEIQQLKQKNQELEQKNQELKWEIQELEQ

4H967-bN = target: T38, 4H967-bN
T38 chain: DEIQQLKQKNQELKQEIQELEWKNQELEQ

4H1629-bA = target: T39, 4H1629-bA
T39 chain: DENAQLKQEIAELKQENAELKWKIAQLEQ

4H1710-bA = target: T40, 4H1710-bA
T40 chain: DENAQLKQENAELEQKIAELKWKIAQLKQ

4H1804-bA = target: T41, 4H1804-bA
T41 chain: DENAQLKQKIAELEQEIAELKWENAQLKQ

4H1985-bA = target: T42, 4H1985-bA
T42 chain: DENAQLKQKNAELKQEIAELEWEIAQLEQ

4H3129-bA = target: T43, 4H3129-bA
T43 chain: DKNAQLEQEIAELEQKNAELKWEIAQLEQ

4H3172-bA = target: T44, 4H3172-bA
T44 chain: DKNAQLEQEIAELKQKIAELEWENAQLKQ

4H3414-bA = target: T45, 4H3414-bA
T45 chain: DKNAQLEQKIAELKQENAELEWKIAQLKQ

4H3631-bA = target: T46, 4H3631-bA
T46 chain: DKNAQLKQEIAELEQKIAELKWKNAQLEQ

4H3638-bA = target: T47, 4H3638-bA
T47 chain: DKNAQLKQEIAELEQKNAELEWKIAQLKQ

4H3817-bA = target: T48, 4H3817-bA
T48 chain: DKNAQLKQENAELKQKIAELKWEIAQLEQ

4H3974-bA = target: T49, 4H3974-bA
T49 chain: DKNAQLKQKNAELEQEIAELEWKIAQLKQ

4H570-bA = target: T50, 4H570-bA
T50 chain: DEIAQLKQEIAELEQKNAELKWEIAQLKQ

4H584-bA = target: T51, 4H584-bA
T51 chain: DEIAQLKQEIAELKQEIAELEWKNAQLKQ

4H619-bA = target: T52, 4H619-bA
T52 chain: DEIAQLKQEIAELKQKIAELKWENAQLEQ

4H850-bA = target: T53, 4H850-bA
T53 chain: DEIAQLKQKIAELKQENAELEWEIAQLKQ

4H906-bA = target: T54, 4H906-bA
T54 chain: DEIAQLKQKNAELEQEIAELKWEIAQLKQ

4H1449-bA = target: T55, 4H1449-bA
T55 chain: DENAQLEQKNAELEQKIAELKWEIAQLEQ

4H1544-bA = target: T56, 4H1544-bA
T56 chain: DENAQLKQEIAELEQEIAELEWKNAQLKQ

4H1899-bA = target: T57, 4H1899-bA
T57 chain: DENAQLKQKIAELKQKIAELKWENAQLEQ

4H3613-bA = target: T58, 4H3613-bA
T58 chain: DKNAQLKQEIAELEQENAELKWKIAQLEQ

4H3628-bA = target: T59, 4H3628-bA
T59 chain: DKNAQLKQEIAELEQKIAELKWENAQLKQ

4H3858-bA = target: T60, 4H3858-bA
T60 chain: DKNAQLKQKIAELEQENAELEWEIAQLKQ

Binder: DENQQLKQKIQELEQKNQELEWKIQELEQ [4H1845-bN]
- interaction score (4H1845-bN): 0.0957
- interaction score (4H2442-bN): -0.755
- interaction score (4H2576-bN): -1.34
- interaction score (4H2588-bN): -1.62
- interaction score (4H2610-bN): -0.755
- interaction score (4H2618-bN): -0.877
- interaction score (4H2667-bN): 0.755
- interaction score (4H2697-bN): -1.96
- interaction score (4H2729-bN): -0.274
- interaction score (4H3112-bN): -0.777
- interaction score (4H3185-bN): -0.558
- interaction score (4H3189-bN): -0.856
- interaction score (4H331-bN): -1.66
- interaction score (4H3354-bN): -0.397
- interaction score (4H338-bN): -0.586
- interaction score (4H3427-bN): -1.53
- interaction score (4H3606-bN): -0.857
- interaction score (4H370-bN): -1.16
- interaction score (4H3782-bN): -1.24
- interaction score (4H3843-bN): -0.731
- interaction score (4H3855-bN): -0.717
- interaction score (4H4001-bN): -1
- interaction score (4H454-bN): -0.965
- interaction score (4H462-bN): -0.741
- interaction score (4H568-bN): -1.33
- interaction score (4H570-bN): -2.11
- interaction score (4H607-bN): -1.09
- interaction score (4H619-bN): -0.153
- interaction score (4H687-bN): -1.5
- interaction score (4H717-bN): -0.951
- interaction score (4H72-bN): -0.603
- interaction score (4H754-bN): -1.28
- interaction score (4H797-bN): -0.559
- interaction score (4H883-bN): -0.686
- interaction score (4H908-bN): -0.834
- interaction score (4H918-bN): -1.04
- interaction score (4H953-bN): -1.04
- interaction score (4H967-bN): -1.31

Binder: DENAQLKQEIAELKQENAELKWKIAQLEQ [4H1629-bA]
- interaction score (4H1629-bA): 0.605
- interaction score (4H1710-bA): -0.992
- interaction score (4H1804-bA): -1.39
- interaction score (4H1985-bA): -0.329
- interaction score (4H2667-bN): -1.22
- interaction score (4H3129-bA): 0.102
- interaction score (4H3172-bA): -0.887
- interaction score (4H3414-bA): 0.702
- interaction score (4H3631-bA): -0.216
- interaction score (4H3638-bA): -0.477
- interaction score (4H3817-bA): -0.529
- interaction score (4H3974-bA): -0.124
- interaction score (4H570-bA): -0.594
- interaction score (4H584-bA): -1.4
- interaction score (4H619-bA): -0.0748
- interaction score (4H850-bA): -1.14
- interaction score (4H906-bA): -0.968

Binder: DENAQLEQKNAELEQKIAELKWEIAQLEQ [4H1449-bA]
- interaction score (4H1449-bA): -0.613
- interaction score (4H1544-bA): -0.535
- interaction score (4H1629-bA): -1.11
- interaction score (4H1710-bA): 0.786
- interaction score (4H1804-bA): -0.732
- interaction score (4H1899-bA): -0.25
- interaction score (4H1985-bA): 0.787
- interaction score (4H3129-bA): -0.874
- interaction score (4H3172-bA): -1.06
- interaction score (4H3414-bA): -1.03
- interaction score (4H3613-bA): -0.891
- interaction score (4H3628-bA): -0.201
- interaction score (4H3631-bA): 0.473
- interaction score (4H3638-bA): -1.83
- interaction score (4H3817-bA): -0.857
- interaction score (4H3858-bA): -0.848
- interaction score (4H3974-bA): 2.19
- interaction score (4H570-bA): -1.93
- interaction score (4H584-bA): -1.3
- interaction score (4H619-bA): -1.52
- interaction score (4H850-bA): -0.723
- interaction score (4H906-bA): -0.904
